From patent publication US20230242902A1, “A HIGHLY ERROR-PRONE […] R[…] FOR TARGETED CONTINUOUS EVOLUTION IN VIVO” (The Regents of the University of California, priority 2017, published 2023)

These molecules were tested on p1 (assay: p1 copy number by p1-encoded mKate2 fluorescence). Details: OR-Y24, measured in triplicate.
Type: cell-based, S. cerevisiae
Experimental: A calibration curve was established to correlate p1 copy number, determined via quantitative PCR (qPCR), with fluorescence of p1-encoded mKate2 (Table 1). Five TP-DNAP1 variants representing a wide range of copy numbers were transformed into ORY24 and passaged until w.t. p1 was displaced. The five OR-Y24 strains were grown to saturation, diluted 1:10,000 to mimic p1 fluctuation tests, and grown in triplicate 100 μL cultures and duplicate 40 mL cultures. 100 μL saturated cultures were subject to fluorescence measurement of mKate2 (ex/em=561 nm/620 nm, bandwidth=15 nm) on a flow cytometer (Invitrogen Attune NxT). Whole-cell DNA extracts were prepared from 40 mL cultures and used as templates for qPCR measurement of p1-encoded leu2 (Q180*), as described previously (Ravikumar et al., 2014). p1-encoded LEU2 was PCR amplified with qPCR-Leu2F and qPCR Leu2R; and genomic LEU3 was PCR amplified with qPCR-Leu3F and qPCR-Leu3R using SyBR Green (Fisher Scientific) master mix.
To assay p1 copy number for large-scale p1 fluctuation tests, additional replicates of OR-Y24 strains were grown from the 1:10,000 dilution in triplicate and saturated cultures were subject to fluorescence measurement via flow cytometry. Fluorescence measurements were converted to copy number with the linear calibration curve.
To assay relative p1 copy number for small-scale p1 fluctuation tests, an additional 200 μL culture of OR-Y24 strains were grown from the 1:10,000 dilution. 200 μL saturated cultures were subject to an OD600 measurement and fluorescence measurement of mKate2 (ex/em=588 nm/633 nm), using a microplate reader (TECAN Infinite M200 PRO). A linear relationship was assumed between p1 copy number and OD600-normalized mKate2 fluorescence. Copy numbers were calculated from normalization to a w.t. TP-DNAP1 control.
For a few large-scale p1 fluctuation tests, p1 copy number was assayed by the method of small scale p1 fluctuation tests (i.e. microplate reader measurement). For these experiments, mutant TP-DNAP1 p1 copy numbers were calculated by normalization to a w.t. TP-DNAP1 control. The copy number of this control was assumed to be the average w.t. TP-DNAP1 copy number from all large-scale p1 fluctuation tests that used flow cytometry measurements.
TP-DNAP1 plasmids were isolated from these strains and subject to Sanger sequencing. 210 unique variants were identified and the corresponding plasmids were re-transformed into OR-Y24. Transformed strains were passaged in SC-UH until w.t. p1 was displaced, and subject to p1 copy number measurement in triplicate. Four high copy variants were directly subject to qPCR measurements for validation. To test the suppressor activity of the G410H mutation, which yields increased p1 copy number, this amino acid change was added to several low-activity TP-DNAP1 variants. p1 copy number was similarly assayed for these strains.

Molecule	Mean fold-increase over w.t. (p1 copy number)
K612Q: TP-DNAP1 variant (protein) MDYKDKALNDLRNVYADFDSLPLDFRQILIKDRATLLQKEDVEKKILERQEDAKKYAEYLKQSEIPERISLPNIKRHKGVSISFEETSEDMVLEPRPFIFDGLNIRCFRRETIFSLKNKILNMVKESSSFKNVSRQSVSFMYFKIFNKGKVIASTKSVNIYEDKIDERLEDLCNNFDDVLKKIIDVTYGYESLFVSETYSYVIFYAKSIYFPQPRCVNNWGNNIPNILTFDSFKLFTANKNNVSCIKQCSRFLWQKDFNTLEEMIEYKNGNICIVTPQLHINDVRDIKSFNDIRLYSESPIKTFSVIDNTITYLFYFKEHLGVIFNITKSRHDRRVTKFSPLSKFSDVKNITVCFDIESYFDPEKESNQVNIPFICCASIIYNKVIGNIVDFEGRDCVAQMIEYVVDICGELNISSVELIAHNGGGYDFHYILSSMYNPAAIKNILIRNNSFISFNFAHDGVKFSVKDSYSFLLCSLANASKAFLNEETFKKTDFPHHDLKTADDLYKVYKEWSSVNTEINHVVEKEKLLITSEHIVNFTKNDKSKTLIEWSKDYCRNDVLVLSKVWLEFKNAVEDIFNCELVDQTMTLAGLSYKLFQANMPFDVELRHPNQEDYFNMREALIGGRCISVNGIYKDVLCLDVKSLYPASMAFYDQPYGSFKRVSSRPKDELGIYYVRVTPNRNNKSNFFPIRSHNKITYNNFEESTYIAWYTNVDIDIGLSEGHNIEYIPFDSYGNIGYSWSKKGKIFEKYIKDVLYKLKIKYEKQNNKVKRNVIKIIMNSLWGKFAQKWVNFEYFIKSEDDIDFESEEAYKIWDTDFMLIKKIKESTYSSKPIQNGVFTLSWARYHMKSIWDAGAKEGAECIYSDTDSIFVHKEHFKKNAKFMLNGLKVPIIGSEVGQLELECEFDKLLCAGKKQYMGFYTYFQDGKPCIKEKKRFKGIPSNYIIPELYAHLLSGADKEAKIQFLKFRREWGSVKGYIENKTVKAT	2.04 fold
F616E: TP-DNAP1 variant (protein) MDYKDKALNDLRNVYADFDSLPLDFRQILIKDRATLLQKEDVEKKILERQEDAKKYAEYLKQSEIPERISLPNIKRHKGVSISFEETSEDMVLEPRPFIFDGLNIRCFRRETIFSLKNKILNMVKESSSFKNVSRQSVSFMYFKIFNKGKVIASTKSVNIYEDKIDERLEDLCNNFDDVLKKIIDVTYGYESLFVSETYSYVIFYAKSIYFPQPRCVNNWGNNIPNILTFDSFKLFTANKNNVSCIKQCSRFLWQKDFNTLEEMIEYKNGNICIVTPQLHINDVRDIKSFNDIRLYSESPIKTFSVIDNTITYLFYFKEHLGVIFNITKSRHDRRVTKFSPLSKFSDVKNITVCFDIESYFDPEKESNQVNIPFICCASIIYNKVIGNIVDFEGRDCVAQMIEYVVDICGELNISSVELIAHNGGGYDFHYILSSMYNPAAIKNILIRNNSFISFNFAHDGVKFSVKDSYSFLLCSLANASKAFLNEETFKKTDFPHHDLKTADDLYKVYKEWSSVNTEINHVVEKEKLLITSEHIVNFTKNDKSKTLIEWSKDYCRNDVLVLSKVWLEFKNAVEDIFNCELVDQTMTLAGLSYKLFQANMPFDVELRHPNKEDYENMREALIGGRCISVNGIYKDVLCLDVKSLYPASMAFYDQPYGSFKRVSSRPKDELGIYYVRVTPNRNNKSNFFPIRSHNKITYNNFEESTYIAWYTNVDIDIGLSEGHNIEYIPFDSYGNIGYSWSKKGKIFEKYIKDVLYKLKIKYEKQNNKVKRNVIKIIMNSLWGKFAQKWVNFEYFIKSEDDIDFESEEAYKIWDTDFMLIKKIKESTYSSKPIQNGVFTLSWARYHMKSIWDAGAKEGAECIYSDTDSIFVHKEHFKKNAKFMLNGLKVPIIGSEVGQLELECEFDKLLCAGKKQYMGFYTYFQDGKPCIKEKKRFKGIPSNYIIPELYAHLLSGADKEAKIQFLKFRREWGSVKGYIENKTVKAT	2.2 fold
K612S: TP-DNAP1 variant (protein) MDYKDKALNDLRNVYADFDSLPLDFRQILIKDRATLLQKEDVEKKILERQEDAKKYAEYLKQSEIPERISLPNIKRHKGVSISFEETSEDMVLEPRPFIFDGLNIRCFRRETIFSLKNKILNMVKESSSFKNVSRQSVSFMYFKIFNKGKVIASTKSVNIYEDKIDERLEDLCNNFDDVLKKIIDVTYGYESLFVSETYSYVIFYAKSIYFPQPRCVNNWGNNIPNILTFDSFKLFTANKNNVSCIKQCSRFLWQKDFNTLEEMIEYKNGNICIVTPQLHINDVRDIKSFNDIRLYSESPIKTFSVIDNTITYLFYFKEHLGVIFNITKSRHDRRVTKFSPLSKFSDVKNITVCFDIESYFDPEKESNQVNIPFICCASIIYNKVIGNIVDFEGRDCVAQMIEYVVDICGELNISSVELIAHNGGGYDFHYILSSMYNPAAIKNILIRNNSFISFNFAHDGVKFSVKDSYSFLLCSLANASKAFLNEETFKKTDFPHHDLKTADDLYKVYKEWSSVNTEINHVVEKEKLLITSEHIVNFTKNDKSKTLIEWSKDYCRNDVLVLSKVWLEFKNAVEDIFNCELVDQTMTLAGLSYKLFQANMPFDVELRHPNSEDYFNMREALIGGRCISVNGIYKDVLCLDVKSLYPASMAFYDQPYGSFKRVSSRPKDELGIYYVRVTPNRNNKSNFFPIRSHNKITYNNFEESTYIAWYTNVDIDIGLSEGHNIEYIPFDSYGNIGYSWSKKGKIFEKYIKDVLYKLKIKYEKQNNKVKRNVIKIIMNSLWGKFAQKWVNFEYFIKSEDDIDFESEEAYKIWDTDFMLIKKIKESTYSSKPIQNGVFTLSWARYHMKSIWDAGAKEGAECIYSDTDSIFVHKEHFKKNAKFMLNGLKVPIIGSEVGQLELECEFDKLLCAGKKQYMGFYTYFQDGKPCIKEKKRFKGIPSNYIIPELYAHLLSGADKEAKIQFLKFRREWGSVKGYIENKTVKAT	1.75 fold
E613D: TP-DNAP1 variant (protein) MDYKDKALNDLRNVYADFDSLPLDFRQILIKDRATLLQKEDVEKKILERQEDAKKYAEYLKQSEIPERISLPNIKRHKGVSISFEETSEDMVLEPRPFIFDGLNIRCFRRETIFSLKNKILNMVKESSSFKNVSRQSVSFMYFKIFNKGKVIASTKSVNIYEDKIDERLEDLCNNFDDVLKKIIDVTYGYESLFVSETYSYVIFYAKSIYFPQPRCVNNWGNNIPNILTFDSFKLFTANKNNVSCIKQCSRFLWQKDFNTLEEMIEYKNGNICIVTPQLHINDVRDIKSFNDIRLYSESPIKTFSVIDNTITYLFYFKEHLGVIFNITKSRHDRRVTKFSPLSKFSDVKNITVCFDIESYFDPEKESNQVNIPFICCASIIYNKVIGNIVDFEGRDCVAQMIEYVVDICGELNISSVELIAHNGGGYDFHYILSSMYNPAAIKNILIRNNSFISFNFAHDGVKFSVKDSYSFLLCSLANASKAFLNEETFKKTDFPHHDLKTADDLYKVYKEWSSVNTEINHVVEKEKLLITSEHIVNFTKNDKSKTLIEWSKDYCRNDVLVLSKVWLEFKNAVEDIFNCELVDQTMTLAGLSYKLFQANMPFDVELRHPNKDDYFNMREALIGGRCISVNGIYKDVLCLDVKSLYPASMAFYDQPYGSFKRVSSRPKDELGIYYVRVTPNRNNKSNFFPIRSHNKITYNNFEESTYIAWYTNVDIDIGLSEGHNIEYIPFDSYGNIGYSWSKKGKIFEKYIKDVLYKLKIKYEKQNNKVKRNVIKIIMNSLWGKFAQKWVNFEYFIKSEDDIDFESEEAYKIWDTDFMLIKKIKESTYSSKPIQNGVFTLSWARYHMKSIWDAGAKEGAECIYSDTDSIFVHKEHFKKNAKFMLNGLKVPIIGSEVGQLELECEFDKLLCAGKKQYMGFYTYFQDGKPCIKEKKRFKGIPSNYIIPELYAHLLSGADKEAKIQFLKFRREWGSVKGYIENKTVKAT	1.82 fold
K612V: TP-DNAP1 variant (protein) MDYKDKALNDLRNVYADFDSLPLDFRQILIKDRATLLQKEDVEKKILERQEDAKKYAEYLKQSEIPERISLPNIKRHKGVSISFEETSEDMVLEPRPFIFDGLNIRCFRRETIFSLKNKILNMVKESSSFKNVSRQSVSFMYFKIFNKGKVIASTKSVNIYEDKIDERLEDLCNNFDDVLKKIIDVTYGYESLFVSETYSYVIFYAKSIYFPQPRCVNNWGNNIPNILTFDSFKLFTANKNNVSCIKQCSRFLWQKDFNTLEEMIEYKNGNICIVTPQLHINDVRDIKSFNDIRLYSESPIKTFSVIDNTITYLFYFKEHLGVIFNITKSRHDRRVTKFSPLSKFSDVKNITVCFDIESYFDPEKESNQVNIPFICCASIIYNKVIGNIVDFEGRDCVAQMIEYVVDICGELNISSVELIAHNGGGYDFHYILSSMYNPAAIKNILIRNNSFISFNFAHDGVKFSVKDSYSFLLCSLANASKAFLNEETFKKTDFPHHDLKTADDLYKVYKEWSSVNTEINHVVEKEKLLITSEHIVNFTKNDKSKTLIEWSKDYCRNDVLVLSKVWLEFKNAVEDIFNCELVDQTMTLAGLSYKLFQANMPFDVELRHPNVEDYFNMREALIGGRCISVNGIYKDVLCLDVKSLYPASMAFYDQPYGSFKRVSSRPKDELGIYYVRVTPNRNNKSNFFPIRSHNKITYNNFEESTYIAWYTNVDIDIGLSEGHNIEYIPFDSYGNIGYSWSKKGKIFEKYIKDVLYKLKIKYEKQNNKVKRNVIKIIMNSLWGKFAQKWVNFEYFIKSEDDIDFESEEAYKIWDTDFMLIKKIKESTYSSKPIQNGVFTLSWARYHMKSIWDAGAKEGAECIYSDTDSIFVHKEHFKKNAKFMLNGLKVPIIGSEVGQLELECEFDKLLCAGKKQYMGFYTYFQDGKPCIKEKKRFKGIPSNYIIPELYAHLLSGADKEAKIQFLKFRREWGSVKGYIENKTVKAT	1.85 fold
